The results in this text go back to the RNAGym collection of RNA variant scans (doi:10.7554/elife.90254).

B1: OR4K15 (parent)
chain: GUUAACGGUCAUAGGCCAUGGAAACUAGGAGCACCAUUUCGCUGCCAGUGAAGAAAUGAACAAAGAAAAUCUGGGCCAGGCAGGCAUCAAAAGAAAUAGUCUUGCGCUCAACCAGAAAGUCUGUAAUCAUUUUAAGGGUA

The variants in this data set derive from B1. Description: self-cleavage, relative activity (ratio to wild type); higher = more cleavage; in vitro, sequencing; the parent is a self-cleaving ribozyme.
On to GUUAACGGUCAUAGGCCAUGGAAACUAGGAGCACCAUUUCGCUGCCAGCGAAGAAAUGAACAAAGAAAAUCUGGGCCAGGCAGGCAUCAAAAGAAAUAGUCUUGCGCUCAACCAGAAAGUCUGUAAUCAUUUUUAGGGUA [U49C A134U], for which the self-cleavage was 1.2. As to GUUAACGGUCUUAGGCCAUGGAAACUAGGAGCACCAUUUCGCUGCCAGUGAAGAAAUGAACAAAGGAAAUCUGGGCCAGGCAGGCAUCAAAAGAAAUAGUCUUGCGCUCAACCAGAAAGUCUGUAAUCAUUUUAAGGGUA [A11U A66G], the self-cleavage was 2.37. As for GUUAACGGUCAUAGGCCAUGGAAACUAGGAGCACCAUUUCGCUGCCAGUGAAGAAAUGAACAAAGAAAAUCUGGGCCAGGCAGGCAUCAAAAGAAAUAGUCUUGCGUUCAACCAGAAAGUCAGUAAUCAUUUUAAGGGUA [C107U U122A], the self-cleavage amounted to 0. The same measure for GUUAACGGUCAUAGGCCAUGGAAACUAGGAGCACCAUUUCGCAGCCAGUGAAGAAAUGAACAAAGAGAAUCUGGGCCAGGCAGGCAUCAAAAGAAAUAGUCUUGCGCUCAACCAGAAAGUCUGUAAUCAUUUUAAGGGUA [U43A A67G]: 1.88.

Regarding GUUAACGGUCAUAGGCCAUGGAAACUAGGAGCACCAUUUCGCUGCCAGUGGAGAAAUGAGCAAAGAAAAUCUGGGCCAGGCAGGCAUCAAAAGAAAUAGUCUUGCGCUCAACCAGAAAGUCUGUAAUCAUUUUAAGGGUA [A51G A60G], the self-cleavage worked out at 1.2.

For GUUAACGGUCAUAGGCCAUGGAAACUAGGAGCACCAUUUCGCUGCCAGUGAAGAAAUGAACAAAGAAAAUCUGGGCCAGGCAGGCAUCAAAAGAAAUAGUCUUGCGCUCAACCAGAAAGUCUGUAAUCAUCUUAAGUGUA [U131C G137U], the self-cleavage was found to be 1.54. With GUUGACGGUCAUAGGCCAUGGAAACUAGGAGCACCAUUUCGCUGCCAGUGAAGAAAUGAACAAAGAAAAUCCGGGCCAGGCAGGCAUCAAAAGAAAUAGUCUUGCGCUCAACCAGAAAGUCUGUAAUCAUUUUAAGGGUA [A4G U72C] the figure was 0.21; with GUUAACGGUCAUAGGCCAUGGAAACUAGGAGCACCAUUUCGCAGCCAGUGAAGAAAUGAACAAAGAAAAUCUGGGCCAGGCAGGCACCAAAAGAAAUAGUCUUGCGCUCAACCAGAAAGUCUGUAAUCAUUUUAAGGGUA [U43A U87C], 1.55; with GUUAACGGUCAUAGGCCAUGGAAACUAGGAGCACCAUUUCGCUGCCAGUGAAGAAAUGAACAAAGAGAAUCUGGGCCAGGCAGGCAUCAAAAGAAAUAGUCUUGCGUUCAACCAGAAAGUCUGUAAUCAUUUUAAGGGUA [A67G C107U], 0.01. With GUUAACGGUCGUAGGCCAUGGAAACUAGGAGCACCAUUUCGCUGCCAGUGGAGAAAUGAACAAAGAAAAUCUGGGCCAGGCAGGCAUCAAAAGAAAUAGUCUUGCGCUCAACCAGAAAGUCUGUAAUCAUUUUAAGGGUA [A11G A51G] the figure was 1.15. With GUUAACGGUCAUAGGCCAUGGAGACUAGGAGCACCAUUUCGCUGCCAGUGAAGAAAUGAACAAAGAAAAUCUGGGCCAGGCAGGCAUCAAAGGAAAUAGUCUUGCGCUCAACCAGAAAGUCUGUAAUCAUUUUAAGGGUA [A23G A92G] the figure was 1.17. With GUUAACGGUCAUAGGACAUGGAAACUAGGAGCACCAUUUCGCUGCCAGUGAAGAAAUGAACAAAGAAAAUCUGGGCCAGGCAGGCAUCAAAAGAAAUAGUCUUGCGCUCAACCAGAAAGUCUGUAGUCAUUUUAAGGGUA [C16A A126G], the self-cleavage came to 1.2.

In the case of GUUAACGGUCAUAGGCCAUGGAUACUAGGAGCUCCAUUUCGCUGCCAGUGAAGAAAUGAACAAAGAAAAUCUGGGCCAGGCAGGCAUCAAAAGAAAUAGUCUUGCGCUCAACCAGAAAGUCUGUAAUCAUUUUAAGGGUA [A23U A33U], the self-cleavage amounted to 1.17. With GUUAACGGUCACAGGCCAUGGAAACUAGGAGCACCAUUUCGCUGCCAGUGAAGAAAUGAACAAAGAAAAUCUGGGCCAGGCAGGCAUCAAAAGAAAUAGUCUUGCGCUCAACCAGAGAGUCUGUAAUCAUUUUAAGGGUA [U12C A117G] the figure was 1.33; with GUUAACGGUCAUAGGCCAUGGAAACUAGGAGCACCAUUUCGCUGCUAGUGAAGAAAUGAACAAAGAAAAUCUGGGCCAGGCAGGCAUCAAAAGAAAUAGUCUUGCGCUCAACCAGAAAGUCUGUAAUCAUUUUAAGGGCA [C46U U139C], 2.16; with GUUAACGGUCAUAGGCCAUGGAAACUAGGAGCACCAUUUCGCUGCCUGCGAAGAAAUGAACAAAGAAAAUCUGGGCCAGGCAGGCAUCAAAAGAAAUAGUCUUGCGCUCAACCAGAAAGUCUGUAAUCAUUUUAAGGGUA [A47U U49C], 0.36.

As for GUUAACGGUCACAGGCCAUGGAAACUAGGAGCACCAUUUCGCUGCCAGUGAAGAAAUGGACAAAGAAAAUCUGGGCCAGGCAGGCAUCAAAAGAAAUAGUCUUGCGCUCAACCAGAAAGUCUGUAAUCAUUUUAAGGGUA [U12C A59G], the self-cleavage was found to be 0.86.

GUUAACGGUCAUAGGCCAUGGAAACUAGGAGCACCAUUUCGCUGCCAGUGAGGAAAUGAACAAAGAAAAUCUGGGCCAGUCAGGCAUCAAAAGAAAUAGUCUUGCGCUCAACCAGAAAGUCUGUAAUCAUUUUAAGGGUA [A52G G80U]: the self-cleavage came to 0.12.

As for GUUAACGGUAAUAGGCCAUGGAAACUAGGAGCACCAUAUCGCUGCCAGUGAAGAAAUGAACAAAGAAAAUCUGGGCCAGGCAGGCAUCAAAAGAAAUAGUCUUGCGCUCAACCAGAAAGUCUGUAAUCAUUUUAAGGGUA [C10A U38A], the self-cleavage worked out at 0.81. The same measure for GUUAACGGUCAUAGGCCAUGGAAACUAGGAGCACCAUUUCGCUGCCAGUGAAGAAAUGAACAAAGAUAAUCUGGGCCAGGCAGGCAUCAAAAGAAAUAGUCUUGCGCUCAACCAGAAAGUCUGUAAUCAUUUUGAGGGUA [A67U A134G]: 1.09. Consider GUUAACGGUCAUAGGCCAUGGAAACUAGGAGCACCGUUUCGCUGCCAGUGAAGAAAUGAACAAAGAAAAUUUGGGCCAGGCAGGCAUCAAAAGAAAUAGUCUUGCGCUCAACCAGAAAGUCUGUAAUCAUUUUAAGGGUA [A36G C71U], for which the self-cleavage turned out to be 0.31. The same measure for GUUAACGGUCAUAGGCCAUGGAAACUAGGAGCACCUUUUCGCUGCCAGUGAAGAAAUGAACAAAGAAAAUCUGGGCCAGGCAGGCAUCAAAAGAAAUAGUCUUGCGCUCAACCAGAAAGUCUGUAAUCAUUUUAAGGGUA [A36U]: 1.38; for GUUAACGGUCAUAGGCCAUGGAAACUAGGAGCACCAUUUCGCUGCCAGUGAAGAAAUGAACAAAGAAGAUCUGGGCCAGGCAGGCAUCCAAAGAAAUAGUCUUGCGCUCAACCAGAAAGUCUGUAAUCAUUUUAAGGGUA [A68G A89C]: 1.1.

On to GUUAACGGUCAUAGGCCAUGGAAACUAGGAGCACCAUUUCGCUGCCAGUGAAGAAAUGAACAAAGAAGAUCUGGGCCAGGCAGGCAUCAAAAGAAAUAGUCUUGCGCUCAACCAGAAAGUCUGUAACCAUUUUAAGGGUA [A68G U127C], for which the self-cleavage was determined as 1.05.

GUUAACGGUCAUAGGCCAUGGAAACUGGGAGCACCAUUUCGCUGCCAGUGGAGAAAUGAACAAAGAAAAUCUGGGCCAGGCAGGCAUCAAAAGAAAUAGUCUUGCGCUCAACCAGAAAGUCUGUAAUCAUUUUAAGGGUA [A27G A51G]: the self-cleavage worked out at 1.3.

In the case of GGUAACGGUCAUAGGCCAUGGAAACUAGGAGCACCAUUUCGCUGCCAGUGAAGAAAUGAACAAAGAAAAUCUGGGCCAGGCAGGCAUCGAAAGAAAUAGUCUUGCGCUCAACCAGAAAGUCUGUAAUCAUUUUAAGGGUA [U2G A89G], the self-cleavage came to 0.3. As to GUUAACGGUCAUAGGCCAUGGAAACUAGGAGCACCAUUUCGCUGCCAGUGAAGAAAUGUACUAAGAAAAUCUGGGCCAGGCAGGCAUCAAAAGAAAUAGUCUUGCGCUCAACCAGAAAGUCUGUAAUCAUUUUAAGGGUA [A59U A62U], the self-cleavage turned out to be 1.44. The same measure for GUUAACAGUCAUAGGCCAUGGAAACUAGGAGCACCAUUUCGCUGCCAGUGAAGAAAUGAACAAAGAAAAUCUGGGCCAGGCAGGCAUCAAAAGAAAUAGUCUUGCGCUCAACCAGAAAGUCUGUAAUCAUUUUAAGGGUU [G7A A140U]: 1.62; for GUUAACGGUCAUAGGCCAUGGAAACUAGGAGCACAUUUUCGCUGCCAGUGAAGAAAUGAACAAAGAAAAUCUGGGCCAGGCAGGCAUCAAAAGAAAUAGUCUUGCGCUCAACCAGAAAGUCUGUAAUCAUUUUAAGGGUA [C35A A36U]: 0.97; for GUUAACGGUCAUAGGCCAUGGAAACUAGGAGCACCAUUUCGCUGCCAGUGAAGAAAUGAACAAAGAAAAUCUGGGCCAGGCAGGCAUCGAAAGAAAUAGUCUUGCGCUCAACCAGUAAGUCUGUAAUCAUUUUAAGGGUA [A89G A116U]: 0.31. GUUAACGGUCAUAGGUCAUGGAAACUAGGAGCACCAUUUCGCUGCCAGUGAAGAAAUGAACAAAGAAAAUCUGGGCCAGGCAGGCAUCAAAAGGAAUAGUCUUGCGCUCAACCAGAAAGUCUGUAAUCAUUUUAAGGGUA [C16U A94G]: the self-cleavage worked out at 0.94. With GUUAACGGUCAUAGGCCAUGGAAACUAGGUGCACCAUUUCGCUGCCAGUGAAGAAAUGAACAAAGAAAAUCUGGGCCAGGCAGGCAUCAAAAGAAAUAGCCUUGCGCUCAACCAGAAAGUCUGUAAUCAUUUUAAGGGUA [A30U U100C] the figure was 2.08; with GUUAACGGUCAUAGGCCAUGGAAACUAGGAGCACCAUUUCGCUGCCAGUGAAGAAAUGAACAAAGAAAAUCUGGGCCAGGCAGGCACCGAAAGAAAUAGUCUUGCGCUCAACCAGAAAGUCUGUAAUCAUUUUAAGGGUA [U87C A89G], 1.73. The same measure for GUUAACGGUCACAGGCCAUGGAAACUAGGAGCACCAUUUCGCUGCCAGUGAAGAAAUGAACAAAGAAAAUCUGGGCCAGGCAGGCAUCAAAAGAAAUAGUCUUGCGCUCAACCAGGAAGUCUGUAAUCAUUUUAAGGGUA [U12C A116G]: 0.73.

Take GUUAACGGUCAUAGGCCACGGAAACUAGGAGCACCAUUUCGCUGCCAGUGAAGAAAUGAACAAAGAAAAUCUGGGCCAGGCAGGCAUCAAAAGAAAUAGUCUUGCGCUCAACCAGAAAGUCUGUAAUCAUUUUAAGAGUA [U19C G137A]: the self-cleavage came to 0.95. With GUUAACGGUCAUAGGCCAUGGAAACUAGGAGCACCGUUUCGCUGCCAGUGAAGAAAUGAACAAAGAAAAUCUGGGCCGGGCAGGCAUCAAAAGAAAUAGUCUUGCGCUCAACCAGAAAGUCUGUAAUCAUUUUAAGGGUA [A36G A78G] the figure was 0.07.

Turning to GUUAACGGACAUAGGCCAUGGAAGCUAGGAGCACCAUUUCGCUGCCAGUGAAGAAAUGAACAAAGAAAAUCUGGGCCAGGCAGGCAUCAAAAGAAAUAGUCUUGCGCUCAACCAGAAAGUCUGUAAUCAUUUUAAGGGUA [U9A A24G], the self-cleavage is 1.29.

Turning to GUUAACGGUCAUAGGCCAUGGAAACUAGGAGCACCAUUUCGCUGCCAGUGAAGAAGUGAACAAAGAAAAUCUGGGCCAGGCAGGCAUCAAAAGAAAUAGUCUUGCGCUCAACCAGAAAGUCCGUAAUCAUUUUAAGGGUA [A56G U122C], the self-cleavage came out at 0.91. With GUCAACGGUCAUAGGCCAUGGAAACUAGGAGCACCAUUUCGCUGCCAGUGAAGAAAUGAACAAAGAAAAUCUGGGCCAGGCAGGCAUCAAAAGAAAUAGUCUUGCGGUCAACCAGAAAGUCUGUAAUCAUUUUAAGGGUA [U3C C107G], the self-cleavage amounted to 0.09.

Turning to GUUAACGGUCAUAGGCCUUGGAAACUAGGAGCACCAUUUCGCUGCCAGUGAAGAAAUGAACAAAGAAAAUCUGGGCCAGGCAGGCAUCAAAAGAAAUAGUCUUGCGCUCAACCAGAAAGUCUGUAAUCAUUUAAAGGGUA [A18U U133A], the self-cleavage stood at 1.57. With GUUAACGGCCAUAGGCCAUGGAAACUAGGAGCACCAUUUCGCUGCCAGUGAUGAAAUGAACAAAGAAAAUCUGGGCCAGGCAGGCAUCAAAAGAAAUAGUCUUGCGCUCAACCAGAAAGUCUGUAAUCAUUUUAAGGGUA [U9C A52U] the figure was 1.23.
